We go through 18 sequences from the DeepSol protein solubility set.

The data set in a line: soluble on expression in E. coli; label from the status in PepcDB or PDB records.
As to “MEDKATQTPEQTFSMEAALQETEARLEKRVRPGQILTGKVVLVGSEGVAVDIGAKTEGIIPFNQLTTKPLSEEELRNLLSPGDEVKVQVLRVDPETGQILLSRKKIEAQEKWDRIQELYEKGEPVTVTIKERVKGGVVAELDGVQGFMPASQLDLRRVPNLDEFVGQQVLAKIIEFHRRKGRVILSRRAVLEEEQKKAREAFLKSLEPGQVVEGTVVEVTDFGVFVNLGPVDGLVHRSEITWGRFNHPREVIQKGQKVKAQVLSVDPEKERVNLSIKALIPDPWTTVAEKYPVGTRVRGKVVGLTQFGAFVEVEPGLEGLIHISELSWTKRPKHPSEVVKEGDEVEAVVLRLDPEERRLSLGLKQTQPDPWQQLTEKYPPGTVLKGKVTGVTDFGVFVEIEPGIEGLVHVSELDHKRVENPAALFKKGDEMEVVVLNIDPVEQRVSLSRKRLLPPPLPQEEERPRRARSGKERARRKGAPRREDRREYEYGAVAEYNLYDASSVPTTTATVKLGDLYGDLLASLGLEEEAEEKSRG”, the “soluble on expression in E. coli” value was “soluble”.

In the case of “MEDKPTILIMGGSLGLGNIEDIVEMVCHICDESYQIIVVTGKNKTLKKSLEERNFGRKVVVFGFISFIDKLMAISDILITKPGGLTCAEALSCKLPMILISPIPGQEERNTFYLINNGAAAYVKNIESFDIVFNQIINNPQRLEHMKLACSFLAKPLEHHHHHH”, the “soluble on expression in E. coli” value is listed as “not soluble”.

For “MEDLDALWERYREAVRAGGNPQALYQEMVWPALLALWREKPRVYPFPQAFAVSVHTLGTSPEATALAILGAGAERVYVLHTPESARFLPRLRQDTGKDLYPVEIGKSDVEAIYREVKRLLEKHPEVPVALDLTSGTKAMSAGLAAAGFFFQRFYPKVRVVYVDNEDYDPELRRPRAGTEKLRILPNPHEALAEVDALFAKELYGKGEFGQAAAYFRGMVGRTGNQAYALYALLAEMYRAWRALDFGEALKAGRKLLGQLSQNVWLNHPLNARREALEAQVALLEAVDRFLKARDFALKEGVYGLARTLLHLAQEAKEEAAVLAALYAYRALELLLQERLALLGRRAEAPGLSPEEAEALRKALAELLGVLPEEVRLPAKLGLLDLLAFLRLKGDEALGRLSLAELRGLAGALKGRNSALLVHGFDVPSPKAVEGIARLAQGLLQDLEARTALGPLSPEPVPLGF”, the “soluble on expression in E. coli” value is recorded as “soluble”.

Turning to “MEDRNNIYFFYKHTKSMQEAVEPLKQLATSQGLNVVDDVQKANIIVSVGGNNAFLQATRKTNFRSDCLYVGVSTDREGFYPDFTINEIDKMFEAFENQNIEVKRLSTLEVTIDDEKPFYCLNECSIRSNVIKTFVLEVFIDDMHFETFRGDGMIVSTPTGSTAYNKSVRGAVVDPRLPSLQVSEIASLNNNTYRTLGTSFLLSGDRTLRLKVVQDGNDFPIIGADNEALSIRHAEDIKIRLSDKQVKVLKLKDNTFWHKVQRNFLLEHHHHHH”, the “soluble on expression in E. coli” value is recorded as “soluble”.

For the sequence “MEDTAEENNESIDDQPSTSTATDPNQTRETEKEKGDDEMFRLLQATDEILENKAKSMNLSSLNVRSILHHLIKYPSTIDVLLGIRENDDLPSVRNMRSRKKPDDSGASSTVNTPKKFGALRIEDRGPKSFLDLEYEEDDEYDDDYIEENDTSTRNKLNAGSEEDEENDDEEEIEDEGEDEDDEEQDELEEDGEHEITGSEACTSGQNDTMHALLFDETSEDVQNEEDYVLNMTLNDTRAESVAPIPTLDNVDDDGFYRDFVTGINRTEKDNDNLEVLDTEDDPDDEDYNVCADDGLNVEDWDETRQDKTTQIPRHELKALMIDTLLAEKEIPLNAFPEEAINGEEHRKSQKVKDAEVYERINTSISSSSESCSLLKDSLATFRPQELQQLNMQLEQHVQLLTQLVVTCHHDVNLSHVRNSSQLMMNELDDIRQQKIYPTVFDVRNLDAAIESCHDINAFDAVDESFLKYAENTEGYGGIALRPEAAVVLSRSNAIRYPALLPSRQPFFIETPIPFLSEEDLMLAVALLQFAHLPRRGEKEMIDRYTAIQQHCLPARSSYKIRTHLKSMRRSDKNPIHQIMQAAEKGVCKLVLPLKSWQESDTPICQWPPASQPGWYRRFQETFNVTEERKILRKHVSTMVLTPVKNKDRQDQEASEATFESGEEGEDDEFVNMGTAPDGRKIIMGREHIEDLVHQLIKQNEISPSKRRKNPTPMKLSTMIQLEEAEKRIADSQKNSCGGQTISALSNVSGDSNVDNNGTHEKELMPSTSSIDSLESINNQETSKFPRPLPMSDQPTLNTSCHITTTTCSVSYEDVDVGTLKKSYVEITASKYETNSNSCFSYPIPPTPGRRSPDDFDDYFMDLESNSLMWPQTPYAVTDENPQTPRGFSASESSEPIDFSSLGKATSLDTEEIVFQSTSCQRPMGYCSDFGEFSNSSSLPEEIPVPSHQRTPQESAIEDDSSMPGLDMVPLYEEDVEECIIEDIEEEEAPIKQGLVNSRPPLRFKKEVKAGITNLAPSRKRTRIEREAMGSVGLDDEQLHDKQKENIMRKVIEDVNQRLFMHTDTYQRFKEAITDENLTDFEKVTRTIIILANHPELLNLVLLNAPPEAVISDLQCDHNYQSYKVAIEMIMDIERYITAAKLKEPSLKGLFRYIQSFLEDKPNMTDEQATKRFYELFGQDRPLWKKLESRFWCLPYKARPRLENYEYIDLTGLETMSKREKRDWNSIPPRFETVDDIDQVMGSVYRASKNEPPSNLVVKCGEFCIRNDDETYTQLEITERLWTRKDDISLLTSYNEALKTIPNFTVSQMPSLISDLSFGEKSIIARLQYLLTELKSLD”, the “soluble on expression in E. coli” value is recorded as “soluble”.

Take “MEEAEKPLQVAAVDSSVPRTAELAGITTLDDPLGHMPERFDAFICYCPSDIQFVQEMIRQLEQTNYRLKLCVSDRDVLPGTCVWSIASELIEKRCRRMVVVVSDDYLQSKECDFQTKFALSLSPGAHQKRLIPIKYKAMKKEFPSILRFITVCDYTNPCTKSWFWTRLAKALSLPLEHHHHHH”: the “soluble on expression in E. coli” value is “soluble”.

Take “MEEEAAVEKPISLNQQRMNGVVAALKQSNARRVIDLGCGQGNLLKILLKDSFFEQITGVDVSYRSLEIAQERLDRLRLPRNQWERLQLIQGALTYQDKRFHGYDAATVIEVIEHLDLSRLGAFERVLFEFAQPKIVIVTTPNIEYNVKFANLPAGKLRHKDHRFEWTRSQFQNWANKITERFAYNVQFQPIGEADPEVGSPTQMAVFIHRGHHHHHH”: the “soluble on expression in E. coli” value is listed as “soluble”.

For “MEEQNNNQLQIELKEEVAQGTYANLAIITHSSSEFILDFVRVMPGVPKAGVQSRIIVAPEHAKRLLRALEDNIAKYERAFGPIRISEESPMPPLSVVKGEA”, the “soluble on expression in E. coli” value was “not soluble”.

Regarding “MEEYEFLVRVREAGGFDIEHLMDTKPSSCVIGCREFDNNDDYNAHIVLFARMGIHKYNMIQGTNLQLSCVEKYNYRSPRVYSAFYITLIAKDPDACNSLVTFQTRVVEEGFNMTKLSCNIARPKPGPQENAALPRHSVDLEPVKKSELLTHDWIRLYMELAFLKAHLRSPKNPNLSKLVIVMVAIETKDNMEPPSERLKARNAFFYIKYKYHANKGRGPKRRLGHKTPDRIAIVRRTLDKNTGYLTLEFPEPIL”, the “soluble on expression in E. coli” value is “soluble”.

As to “MEFLKLSEGKTKEVYAYDDSHVLLKFKDSITAGDGARKDILEGKGILNAQTSAFLFRLLESKGIETHYIGMFDERTMIAKKLKMIPVEVVLRNIATGSIVKRLPIKEGEVFEPPIIEFFLKDDERHDPMLNYYHMEYLKLMTRKEAEKIEEIMLKVNEILYPFFRSKKLLLYDFKLEFGRVNDKLIIGDELTLDSMRIREEGSGRILDKDLYRKGADLETVKKAYEEFFKRISE”, the “soluble on expression in E. coli” value was “soluble”.

As to “MEFSVKSGSPEKQRSACIVVGVFEPRRLSPIAEQLDKISDGYISALLRRGELEGKPGQTLLLHHVPNVLSERILLIGCGKERELDERQYKQVIQKTINTLNDTGSMEAVCFLTELHVKGRNNYWKVRQAVETAKETLYSFDQLKTNKSEPRRPLRKMVFNVPTRRELTSGERAIQHGLAIAAGIKAAKDLGNMPPNICNAAYLASQARQLADSYSKNVITRVIGEQQMKELGMHSYLAVGQGSQNESLMSVIEYKGNASEDARPIVLVGKGLTFDSGGISIKPSEGMDEMKYDMCGAAAVYGVMRMVAELQLPINVIGVLAGCENMPGGRAYRPGDVLTTMSGQTVEVLNTDAEGRLVLCDVLTYVERFEPEAVIDVATLTGACVIALGHHITGLMANHNPLAHELIAASEQSGDRAWRLPLGDEYQEQLESNFADMANIGGRPGGAITAGCFLSRFTRKYNWAHLDIAGTAWRSGKAKGATGRPVALLAQFLLNRAGFNGEE”, the “soluble on expression in E. coli” value is on record as “soluble”.

As for “MEFVPEQHPPITETTTGAASNGCPVVGHMKYPVEGGGNQDWWPNRLNLKVLHQNPAVADPMGAAFDYAAEVATIDVDALTRDIEEVMTTSQPWWPADYGHYGPLFIRMAWHAAGTYRIHDGRGGAGGGMQRFAPLNSWPDNASLDKARRLLWPVKKKYGKKLSWADLIVFAGNCALESMGFKTFGFGFGRVDQWEPDEVYWGKEATWLGDERYSGKRDLENPLAAVQMGLIYVNPEGPNGNPDPMAAAVDIRETFRRMAMNDVETAALIVGGHTFGKTHGAGPADLVGPEPEAAPLEQMGLGWKSSYGTGTGKDAITSGIEVVWTNTPTKWDNSFLEILYGYEWELTKSPAGAWQYTAKDGAGAGTIPDPFGGPGRSPTMLATDLSLRVDPIYERITRRWLEHPEELADEFAKAWYKLIHRDMGPVARYLGPLVPKQTLLWQDPVPAVSHDLVGEAEIASLKSQIRASGLTVSQLVSTAWAAASSFRGSDKRGGANGGRIRLQPQVGWEVNDPDGDLRKVIRTLEEIQESFNSAAPGNIKVSFADLVVLGGCAAIEKAAKAAGHNITVPFTPGRTDASQEQTDVESFAVLEPKADGFRNYLGKGNPLPAEYMLLDKANLLTLSAPEMTVLVGGLRVLGANYKRLPLGVFTEASESLTNDFFVNLLDMGITWEPSPADDGTYQGKDGSGKVKWTGSRVDLVFGSNSELRALVEVYGADDAQPKFVQDFVAAWDKVMNLDRFDVR”, the “soluble on expression in E. coli” value is “soluble”.

As for “MEGSHHHHHHSQAQSKAQVLQSVAGQTLTVRCQYPPTGSLYEKKGWCKEASALVCIRLVTSSKPRTMAWTSRFTIWDDPDAGFFTVTMTDLREEDSGHYWCRIYRPSDNSVSKSVRFYLVVS”, the “soluble on expression in E. coli” value is “soluble”.

For the sequence “MEHEGLLVAEREIEVNNYDIDAMGIVSNIVYIRWFEDLRTIFINEYMTFSEMMKEHISPILMKTEIEYKVPITIHDKPVGRCWFVKAGRMKWVFKFEITSGDKVHCIGQQTGGFLDLERQRITKMPLEHHHHHH”, the “soluble on expression in E. coli” value is “not soluble”.

As to “MEHIEIRVSATGSMSSFHALCSFHQWPINVACSCWLSHCYRIYSLYPPQLVSCSDRLSTSGNTNAGAEFVTE”, the “soluble on expression in E. coli” value is listed as “soluble”.

As to “MEHKEVVLLLLLFLKSGQGEPLDDYVNTQGPSLFSVTKKQLGAGSREECAAKCEEDKEFTCRAFQYHSKEQQCVIMAENRKSSIIIRMRDAVLFEK”, the “soluble on expression in E. coli” value is “not soluble”.

As for “MEIIRSNFKINLHKVYQAIEEADFFAIDGEFSGISNGPSVTALTSGFDTPEERYQKLKKHSMDFLLFQFGLCAFKYDHTDSKHVTKSFNFYVFPKPFSRSSPDVKFVCQSSSIDFLASQGFDFNKVFCSGIPYLNQEEERQLREQFDEKRSQANGAGALAKCPVTIPEDQKKFIDQVIEKIEDFLQSEEKRSLELDPCTGFQRKLIYQTLSWKYPKGIHVETLETDKKERHIVISKVDEEERKRREQEKYTKEQEELNDAVGFSRVIHAIANSGKLVVGHNMLLDVMHTIHQFYCPLPADLNEFKEMAICVFPRLLDTKLMASTQPFKDIINNTSLAELEKRLKETPFDPPKVESAEGFPSYDTASEQLHEAGYDAYITGLCFISMANYLGSLLSPPKMCVSARSKLIEPFFNKLFLMRVMDIPYLNLEGPDLQPKRDHVLHVTFPKEWKTSDLYQLFSAFGNIQISWIDDTSAFVSLSQPEQVQIAVNTSKYAESYRIQTYAEYVGKKQKGKQVKRKWTEDSWKEVDRKRPHMQGPCYHSNSFTAAGMLGKRTLSPDPREAALEDRESEEVSDSELEQTDSCTDPLPEGRKKSKKLKRMKKELSLAGSVSDSPAVLFEVPDTW”, the “soluble on expression in E. coli” value was “soluble”.

In the case of “MEIKRQQEIVEAYHYDMRVPDSEVETDLRVSFSPIEVEEENYPENSSALVARLEFRIVFDEFVLSGAISQINHIIDRKIEKQEDISQEEVDELVRPLFSIVERLSYEVTEIALDRPGVQLNFQQSEEA”, the “soluble on expression in E. coli” value was “not soluble”.
